Measurements: article PMC5952157

Target: V5-HAX-1 (HCLS1-associated protein X-1) (human) (UniProt O00165)
Assay: co-IP

Chain of UniProt O00165 (O00165 whole entry): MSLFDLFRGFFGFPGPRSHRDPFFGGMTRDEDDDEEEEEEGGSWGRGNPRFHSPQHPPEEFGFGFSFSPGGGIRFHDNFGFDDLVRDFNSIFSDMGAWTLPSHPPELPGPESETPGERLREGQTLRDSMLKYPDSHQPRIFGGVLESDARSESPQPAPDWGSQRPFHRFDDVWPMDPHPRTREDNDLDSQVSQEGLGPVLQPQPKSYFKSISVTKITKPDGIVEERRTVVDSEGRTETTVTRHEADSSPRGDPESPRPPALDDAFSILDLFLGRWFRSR

VN/1203 PB1-F2 coexpressed as competitor (Figure 8c) (natural protein)
percent decrease of HAX-1 bound to PA in the presence of PB1-F2: 80%
